Measurements reported in patent US20030175925A1, “Nicotinamide ribonucleoside kinase” (priority 2001, published 2003).

Columns and labels:
[1] = discontinuous spectral NRKse assay coupled to NadD2_HS (NMNATse) and ADH; format: biochemical; conditions: for NRKse and NMNATse activity (summary in words): NMNATse and NRKse assays together; for RATIO: ratio NmR Kinase / NMNATse specific activity; for NmR Kinase: specific activity, 37° C., pH 8.0, 0.8 mM NmR, ATP, 1 unit = 1 micromole NADH per minute
Description: The discontinuous spectral NRKse assay was based on enzymatic coupling of NmR→NMN conversion to production of NAD, catalyzed by excess amounts of recombinant purified NadD2_HS enzyme (NMNATse). NAD production was further coupled to NADH conversion by ADH, as in the NMNATse assay described above.
The assay was performed in disposable UV-transparent plastic cuvettes in a 6-cuvette autosampler of Beckman DU-640 set at 37° C. The 500 μL mixture contained 100 mM Tris/HCl pH 8.0, 115 mM ethanol, 40 mM semicarbazide, 0.8 mM NmR, 0.15 units of NadD2_HS, 3 units of ADH (Sigma), and 0.2-2 milliunits of NRKse (0.2-2 μg, depending on the specific activity). A reaction was initiated by adding 50 μL of 50 mM ATP, and monitored at 340 nm over 20 minutes. An extinction coefficient of NADH equal to 6.22 mM^−1 cm^−1 was used for rate calculations. One unit of enzyme was defined as a quantity capable of producing 1 micromole of NADH per minute.

[2] = discontinuous spectral NMNATse assay coupled to alcohol dehydrogenase (NAD to NADH, 340 nm); format: biochemical; conditions: specific activity; 37° C., pH 7.5, 2 mM ATP, NMN substrate; 1 unit = 1 micromole NADH per minute
Description: The discontinuous spectral NMNATse assay procedure (used for both human NadD2_HS and NadR) coupled to alcohol dehydrogenase (ADH) catalyzed conversion of NAD to NADH was adapted from Balducci, E., et al., Biochem. J., 310:395-400 (1995), as described in U.S. Ser. No. 09/550,398, filed Apr. 14, 2000. The assay was performed in disposable UV-transparent plastic cuvettes in a 6-cuvette autosampler of Beckman DU-640 set at 37° C. The 500 μL mixture contained 100 mM HEPES, pH 7.5, 115 mM ethanol, 40 mM semicarbazide, 2 mM ATP, 3 units of ADH (Sigma), and 0.2-2 milliunits of NMNATse (0.1-10 μg depending on specific activity). A reaction was initiated by adding 10 μL of 50 mM NMN, and monitored at 340 nm over 20 minutes. An extinction coefficient of NADH equal to 6.22 mM^−1 cm^−1 was used for rate calculations. One unit of enzyme was defined as a quantity capable of producing 1 micromole of NADH per minute.

| Molecule | NRKse and NMNATse activity (summary in words) [1] | RATIO [1] | NmR Kinase [1] | NMNATse [2] |
| --- | --- | --- | --- | --- |
| NadR Salmonella: full-size NadR protein from Salmonella typhimurium, all three domains (HTH, NMNATse, NRKse), His-tagged recombinant (protein, UniProt P24518 1-410, looked up, full-length His tag, full-size NadR protein from Salmonella typhimurium, all three domains (HTH, NMNATse, NRKse), His-tagged recombinant) MSSFDYLKTAIKQQGCTLQQVADASGMTKGYLSQLLNAKIKSPSAQKLEALHRFLGLEFPRRQKNIGVVFGKFYPLHTGHIYLIQRACSQVDELHIIMGYDDTRDRGLFEDSAMSQQPTVSDRLRWLLQTFKYQKNIRIHAFNEEGMEPYPHGWDVWSNGIKAFMAEKGIQPSWIYTSEEADAPQYLEHLGIETVLVDPERTFMNISGAQIRENPFRYWEYIPTEVKPFFVRTVAILGGESSGKSTLVNKLANIFNTTSAWEYGRDYVFSHLGGDEMALQYSDYDKIALGHAQYIDFAVKYANKVAFIDTDFVTTQAFCKKYEGREHPFVQALIDEYRFDLVILLENNTPWVADGLRSLGSSVDRKAFQNLLVEMLKENNIEFVHVKEADYDGRFLRCVELVKEMMGEQG | possess NRKse activity in addition to NMNATse activity | 125 | 5 Un/mg | 0.04 Un/mg |
| NadR H. influenzae: N-truncated NadR protein from H. influenzae, amino acids 38-407, both NMNATse and NRKse domains (protein, UniProt P44308 38-407, looked up, fragment) YNKHTQFLRYQEQIMSKTKEKKVGVIFGKFYPVHTGHINMIYEAFSKVDELHVIVCSDTVRDLKLFYDSKMKRMPTVQDRLRWMQQIFKYQKNQIFIHHLVEDGIPSYPNGWQSWSEAVKTLFHEKHFEPSIVFSSEPQDKAPYEKYLGLEVSLVDPDRTFFNVSATKIRTTPFQYWKFIPKEARPFFAKTVAILGGESSGKSVLVNKLAAVFNTTSAWEYGREFVFEKLGGDEQAMQYSDYPQMALGHQRYIDYAVRHSHKIAFIDTDFITTQAFCIQYEGKAHPFLDSMIKEYPFDVTILLKNNTEWVDDGLRSLGSQKQRQQFQQLLKKLLDKYKVPYIEIESPSYLDRYNQVKAVIEKVLNEEEIS | possess NRKse activity in addition to NMNATse activity | 0.02 | 0.02 Un/mg | 0.9 Un/mg |
| NadR H. influenzae; N-terminal domain: N-terminal domain of NadR from H. influenzae, amino acids 38-212, only NMNATse domain (protein, UniProt P44308 38-212, looked up, fragment) YNKHTQFLRYQEQIMSKTKEKKVGVIFGKFYPVHTGHINMIYEAFSKVDELHVIVCSDTVRDLKLFYDSKMKRMPTVQDRLRWMQQIFKYQKNQIFIHHLVEDGIPSYPNGWQSWSEAVKTLFHEKHFEPSIVFSSEPQDKAPYEKYLGLEVSLVDPDRTFFNVSATKIRTTPFQ | – | <0.001 | <0.003 Un/mg | 3 Un/mg |
